Values of other authors, collected in patent US20240285756A1, “METHOD AND COMPOSITION FOR INDUCING TOLERANCE” (ZELARION MALTA LIMITED, priority 2021, published 2024).

Target: T1, CD2 (Homo sapiens, UniProt P06729)
T1 sequence (P06729 25-351): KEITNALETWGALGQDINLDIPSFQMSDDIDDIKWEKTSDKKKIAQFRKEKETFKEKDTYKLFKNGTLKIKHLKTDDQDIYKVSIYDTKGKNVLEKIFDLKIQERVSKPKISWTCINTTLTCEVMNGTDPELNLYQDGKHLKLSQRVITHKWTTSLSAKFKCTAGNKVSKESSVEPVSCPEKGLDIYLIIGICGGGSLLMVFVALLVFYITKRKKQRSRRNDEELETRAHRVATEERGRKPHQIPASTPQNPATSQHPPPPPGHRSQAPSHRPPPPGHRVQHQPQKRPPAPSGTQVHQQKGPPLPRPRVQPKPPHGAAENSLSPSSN
Details: literature value, Branco et al., Transplantation 1999; assay not further specified

B1: siplizumab: humanized IgG1 kappa monoclonal antibody against human CD2; humanized version of rat antibody BTI-322 (antibody, V domains shown)
VH: QVQLVQSGAEVQRPGASVKVSCKASGYIFTEYYMYWVRQAPGQGLELVGRIDPEDGSIDYVEKFKKKVTLTADTSSSTAYMELSSLTSDDTAVYYCARGKFNYRFAYWGQGTLVTVSS
VL: DVVMTQSPPSLLVTLGQPASISCRSSQSLLHSSGNTYLNWLLQRPGQSPQPLIYLVSKLESGVPDRFSGSGSGTDFTLKISGVEAEDVGVYYCMQFTHYPYTFGQGTKLEIK
In the case of B1, the IC50 is listed as about 1 nM.
